Article PMC3462610 (Biochemical Journal, 2011)

Assays:
GST–MKK7β1 = test: GST pull-down of WDR62 fragments with GST–MKK7β1; format: binding, human; details: HEK-293T
HA–JNK2 [1] = test: GST pull-down with WDR62 1018-C–GST constructs; format: binding, human; details: HEK-293T; for association with HA–JNK2: anti-HA/anti-pJNK
HA–JNK1 = test: GST pull-down with WDR62 1018-C–GST constructs; format: binding, human; details: HEK-293T; for association with HA–JNK1: anti-HA/anti-pJNK
His–JNK2 = test: In vitro protein-binding assay; set-up: species or system human; details: purified proteins, 2 h at 37°C, amylose resin
His–MKK7β1 = test: In vitro protein-binding assay; set-up: species or system human; details: purified proteins, 2 h at 37°C, amylose resin
HA–JNK2 [2] = test: Co-immunoprecipitation of HA–JNK2 with Myc-tagged WDR62 constructs, HEK-293T; format: binding, human; details: quantified, means±S.D., three independent experiments
WDR62 = test: GST pull-down of MKK4 with WDR62 fragments; format: binding, human; details: HEK-293T, compared with MKK7–WDR62

B1: Myc-1212-C: Myc-tagged WDR62 aa 1212–1523 (protein)
chain: PSTCSYMEATASSRARISRSISLGDSEGPIVATLAQPLRRPSSVGELASLGQELQAITTATTPSLDSEGQEPALRSWGNHEARANLRLTLSSACDGLLQPPVDTQPGVTVPAVSFPAPSPVEESALRLHGSAFRPSLPAPESPGLPAHPSNPQLPEARPGIPGGTASLLEPTSGALGLLQGSPARWSEPWVPVEALPPSPLELSRVGNILHRLQTTFQEALDLYRVLVSSGQVDTGQQQARTELVSTFLWIHSQLEAECLVGTSVAPAQALPSPGPPSPPTLYPLASPDLQALLEHYSELLVQAVRRKARGH
In the case of B1, the “association with MKK7β1, in words” value (GST–MKK7β1) is reported as “efficiently associated”.

B2: 1018-C–GST: wild-type WDR62-1018-C fused to GST (protein)
chain: RFATSLPHFPGCAGPTEDELSLPEGPSVPSSSLPQTPEQEKFLRHHFETLTESPCRELFPAALGDVEASEAEDHFFNPRLSISTQFLSSLQKASRFTHTFPPRATQCLVKSPEVKLMDRGGSQPRAGTGYASPDRTHVLAAGKAEETLEAWRPPPPCLTSLASCVPASSVLPTDRNLPTPTSAPTPGLAQGVHAPSTCSYMEATASSRARISRSISLGDSEGPIVATLAQPLRRPSSVGELASLGQELQAITTATTPSLDSEGQEPALRSWGNHEARANLRLTLSSACDGLLQPPVDTQPGVTVPAVSFPAPSPVEESALRLHGSAFRPSLPAPESPGLPAHPSNPQLPEARPGIPGGTASLLEPTSGALGLLQGSPARWSEPWVPVEALPPSPLELSRVGNILHRLQTTFQEALDLYRVLVSSGQVDTGQQQARTELVSTFLWIHSQLEAECLVGTSVAPAQALPSPGPPSPPTLYPLASPDLQALLEHYSELLVQAVRRKARGH
For B2, the “association with HA–JNK2” value (HA–JNK2 [1]) was “efficiently precipitated” and the “association with HA–JNK1” value (HA–JNK1) was “efficiently precipitated”.

B3: MBP-1018-C: MBP fused to human WDR62 1018-C fragment (protein)
chain: B2 chain
In the case of B3, the “precipitation of His–JNK2” value (His–JNK2) is reported as “efficiently precipitated His–JNK2” and the “precipitation of His–MKK7β1” value (His–MKK7β1) is reported as “efficiently precipitated”.

B4: Myc-N-1284: Myc-tagged WDR62 aa 1–1284 (protein)
chain: MAAVGSGGYARNDAGEKLPSVMAGVPARRGQSSPPPAPPICLRRRTRLSTASEETVQNRVSLEKVLGITAQNSSGLTCDPGTGHVAYLAGCVVVILDPKENKQQHIFNTARKSLSALAFSPDGKYIVTGENGHRPAVRIWDVEEKNQVAEMLGHKYGVACVAFSPNMKHIVSMGYQHDMVLNVWDWKKDIVVASNKVSCRVIALSFSEDSSYFVTVGNRHVRFWFLEVSTETKVTSTVPLVGRSGILGELHNNIFCGVACGRGRMAGSTFCVSYSGLLCQFNEKRVLEKWINLKVSLSSCLCVSQELIFCGCTDGIVRIFQAHSLHYLANLPKPHYLGVDVAQGLEPSFLFHRKAEAVYPDTVALTFDPIHQWLSCVYKDHSIYIWDVKDINRVGKVWSELFHSSYVWNVEVYPEFEDQRACLPSGSFLTCSSDNTIRFWNLDSSPDSHWQKNIFSNTLLKVVYVENDIQHLQDMSHFPDRGSENGTPMDVKAGVRVMQVSPDGQHLASGDRSGNLRIHELHFMDELVKVEAHDAEVLCLEYSKPETGLTLLASASRDRLIHVLNVEKNYNLEQTLDDHSSSITAIKFAGNRDIQMISCGADKSIYFRSAQQGSDGLHFVRTHHVAEKTTLYDMDIDITQKYVAVACQDRNVRVYNTVNGKQKKCYKGSQGDEGSLLKVHVDPSGTFLATSCSDKSISVIDFYSGECIAKMFGHSEIITSMKFTYDCHHLITVSGDSCVFIWHLGPEITNCMKQHLLEIDHRQQQQHTNDKKRSGHPRQDTYVSTPSEIHSLSPGEQTEDDLEEECEPEEMLKTPSKDSLDPDPRCLLTNGKLPLWAKRLLGDDDVADGLAFHAKRSYQPHGRWAERAGQEPLKTILDAQDLDCYFTPMKPESLENSILDSLEPQSLASLLSESESPQEAGRGHPSFLPQQKESSEASELILYSLEAEVTVTGTDSQYCRKEVEAGPGDQQGDSYLRVSSDSPKDQSPPEDSGESEADLECSFAAIHSPAPPPDPAPRFATSLPHFPGCAGPTEDELSLPEGPSVPSSSLPQTPEQEKFLRHHFETLTESPCRELFPAALGDVEASEAEDHFFNPRLSISTQFLSSLQKASRFTHTFPPRATQCLVKSPEVKLMDRGGSQPRAGTGYASPDRTHVLAAGKAEETLEAWRPPPPCLTSLASCVPASSVLPTDRNLPTPTSAPTPGLAQGVHAPSTCSYMEATASSRARISRSISLGDSEGPIVATLAQPLRRPSSVGELASLGQELQAITTATTPSLDSEGQEPA
In the case of B4, the “reduction of precipitated JNK2 as compared with CS2 and CS5 full-length proteins” value (HA–JNK2 [2]) is reported as 7 -fold.

B5: MKK4: HA-tagged human MKK4 (protein)
chain: MAAPSPSGGGGSGGGSGSGTPGPVGSPAPGHPAVSSMQGKRKALKLNFANPPFKSTARFTLNPNPTGVQNPHIERLRTHSIESSGKLKISPEQHWDFTAEDLKDLGEIGRGAYGSVNKMVHKPSGQIMAVKRIRSTVDEKEQKQLLMDLDVVMRSSDCPYIVQFYGALFREGDCWICMELMSTSFDKFYKYVYSVLDDVIPEEILGKITLATVKALNHLKENLKIIHRDIKPSNILLDRSGNIKLCDFGISGQLVDSIAKTRDAGCRPYMAPERIDPSASRQGYDVRSDVWSLGITLYELATGRFPYPKWNSVFDQLTQVVKGDPPQLSNSEEREFSPSFINFVNLCLTKDESKRPKYKELLKHPFILMYEERAVEVACYVCKILDQMPATPSSPMYVD
In the case of B5, the “MKK4–WDR62 interaction” value (WDR62) is reported as “weaker than the MKK7–WDR62 interaction”.

B6: Myc-1018-1284: Myc-tagged WDR62 aa 1018–1284 (protein)
chain: RFATSLPHFPGCAGPTEDELSLPEGPSVPSSSLPQTPEQEKFLRHHFETLTESPCRELFPAALGDVEASEAEDHFFNPRLSISTQFLSSLQKASRFTHTFPPRATQCLVKSPEVKLMDRGGSQPRAGTGYASPDRTHVLAAGKAEETLEAWRPPPPCLTSLASCVPASSVLPTDRNLPTPTSAPTPGLAQGVHAPSTCSYMEATASSRARISRSISLGDSEGPIVATLAQPLRRPSSVGELASLGQELQAITTATTPSLDSEGQEPA
B6 was tested, and the “association with MKK7β1, in words” value (GST–MKK7β1) was “efficiently associated”.

B7: Myc-1232-C: Myc-tagged WDR62 aa 1232–1523 (protein)
chain: ISLGDSEGPIVATLAQPLRRPSSVGELASLGQELQAITTATTPSLDSEGQEPALRSWGNHEARANLRLTLSSACDGLLQPPVDTQPGVTVPAVSFPAPSPVEESALRLHGSAFRPSLPAPESPGLPAHPSNPQLPEARPGIPGGTASLLEPTSGALGLLQGSPARWSEPWVPVEALPPSPLELSRVGNILHRLQTTFQEALDLYRVLVSSGQVDTGQQQARTELVSTFLWIHSQLEAECLVGTSVAPAQALPSPGPPSPPTLYPLASPDLQALLEHYSELLVQAVRRKARGH
For B7, the “association with MKK7β1, in words” value (GST–MKK7β1) was “but not Myc-1232-C”.

B8: 1018-CΔD–GST: WDR62-1018-C lacking the D domain fused to GST (protein)
chain: RFATSLPHFPGCAGPTEDELSLPEGPSVPSSSLPQTPEQEKFLRHHFETLTESPCRELFPAALGDVEASEAEDHFFNPRLSISTQFLSSLQKASRFTHTFPPRATQCLVKSPEVKLMDRGGSQPRAGTGYASPDRTHVLAAGKAEETLEAWRPPPPCLTSLASCVPASSVLPTDRNLPTPTSAPTPGLAQGVHAPSTCSYMEATASSRARISRSISLGDSEGPIVATLAQPLRRPSSVGELASLGQELQAITTATTPSLDSEGQEPALRSWGNHEASSACDGLLQPPVDTQPGVTVPAVSFPAPSPVEESALRLHGSAFRPSLPAPESPGLPAHPSNPQLPEARPGIPGGTASLLEPTSGALGLLQGSPARWSEPWVPVEALPPSPLELSRVGNILHRLQTTFQEALDLYRVLVSSGQVDTGQQQARTELVSTFLWIHSQLEAECLVGTSVAPAQALPSPGPPSPPTLYPLASPDLQALLEHYSELLVQAVRRKARGH
In the case of B8, the “association with HA–JNK2” value (HA–JNK2 [1]) is reported as “relatively weak interaction”, the pJNK2 in precipitate (HA–JNK2 [1]; anti-pJNK) is reported as “no pJNK1/2 was detected” and the “association with HA–JNK1” value (HA–JNK1) is reported as “relatively weak interaction”. For the same molecule, the pJNK1 in precipitate (HA–JNK1; anti-pJNK) was “no pJNK1/2 was detected”.

B9: Myc-1018-CΔD (protein)
chain: B8 chain
With B9 the “association with MKK7β1, in words” value (GST–MKK7β1) was “efficiently precipitated with GST–MKK7β1”.
